Data taken from US20180155451A1 (published 2018).

T1: FcγRIIb extracellular domain with C-terminal His tag (human, UniProt P31994 43-217)
T1 construct: extracellular domain; Soluble receptor expressed in FreeStyle293 cells; analyte in Biacore; also called FcgRIIb; 2b; not shown: His tag at the C terminus
T1 sequence (looked up): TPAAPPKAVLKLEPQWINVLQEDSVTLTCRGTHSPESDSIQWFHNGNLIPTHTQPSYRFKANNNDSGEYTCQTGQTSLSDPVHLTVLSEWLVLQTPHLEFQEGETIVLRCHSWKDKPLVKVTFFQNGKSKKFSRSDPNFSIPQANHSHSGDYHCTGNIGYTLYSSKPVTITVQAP


What was measured:
[1] = biological target: T2, FcγRIa extracellular domain with C-terminal His tag (human, UniProt P12314 16-292); test: SPR (Biacore), antibody captured on antigen peptide chip, FcγR as analyte; binding relative to GpH7-A5/GpH7-B3/GpL16-k0 = 100
T2 construct: extracellular domain; Soluble receptor expressed in FreeStyle293 cells; analyte in Biacore; also called FcgRI; FcgRIa; not shown: His tag at the C terminus
T2 sequence (P12314 16-292): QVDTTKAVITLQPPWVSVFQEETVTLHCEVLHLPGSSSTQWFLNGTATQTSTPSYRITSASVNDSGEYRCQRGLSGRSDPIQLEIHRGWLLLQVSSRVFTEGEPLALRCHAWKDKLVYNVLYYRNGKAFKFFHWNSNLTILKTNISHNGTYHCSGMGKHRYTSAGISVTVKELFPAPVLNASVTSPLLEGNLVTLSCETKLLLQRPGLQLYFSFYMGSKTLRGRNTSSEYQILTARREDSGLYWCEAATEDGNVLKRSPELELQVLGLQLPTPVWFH
Description: (§1) The heterodimerized antibodies He Abs in which one of the H chains was introduced with an alteration were assayed for their binding activities to each activating FcγR and inhibitory FcγR according to the method described in Example 4. […] The activating FcγRs in FIGS. 26, 27, 28, and 29 are FcγRIa, FcγRIIa (R), FcγRIIa (H), and FcγRIIIa, respectively.
(§2) Analysis of interaction between objective antibody and the FcγR was carried out using Biacore T100 (GE Healthcare). HBS-EP+ (GE Healthcare) was used as the running buffer, and the measurement temperature was set to 25° C. Chips produced by immobilizing the antigen peptide by the amine coupling method to a Series S Sencor Chip CM5 (GE Healthcare), or alternatively, chips produced by allowing preliminarily biotinylated antigen peptides to interact with and immobilize onto a Series S Sensor Chip SA (certified) (GE Healthcare) were used. Antibodies of interest were captured onto an antigen peptide-immobilized chip, and allowed to interact to each FcγR diluted with running buffer. To regenerate and repeatedly use the chip, the antibodies captured on the chip were washed off by reacting 10 mM glycine-HCl, pH 1.5.

[2] = biological target: T1, FcγRIIb extracellular domain with …; test: as above
Description: as §1, §2

[3] = biological target: T2, FcγRIa extracellular domain with …; test: SPR (Biacore); He/Con_1a divided by He/Con_2b (FcγRIIb)
Description: as §1, §2

Row | Binder | He/Con_1a (Ia binding) [1] | He/Con_2b (IIb binding) [2] | He_1a/2b (Ia/IIb) [3]
1 | GpH7-A5/GpH7-B3 variant P329_01G/GpL16-k0 (antibody, human IgG1, kappa, He Ab: heterodimerized anti-glypican-3 IgG1, substitution in one H chain only; also called He Ab P329G) heavy 1: not shown heavy 2: not shown light: DIVMTQSPLSLPVTPGEPASISCQASESLVHSNRNTYLHWYLQKPGQSPQLLIYKVSNRFSGVPDRFSGSGSGTDFTLKISRVEAEDVGVYYCSQNTHVPPTFGQGTKVEIERTVAAPSVFIFPPSDEQLKSGTASVVCLLNNFYPREAKVQWKVDNALQSGNSQESVTEQDSKDSTYSLSSTLTLSKADYEKHKVYACEVTHQGLSSPVTKSFNRGEC | 101 % of control (control = 100) | 41.7 % of control (control = 100) | 2.42
2 | GpH7-A5/GpH7-B3 variant A330_16H/GpL16-k0 (antibody, human IgG1, kappa, He Ab: heterodimerized anti-glypican-3 IgG1, substitution in one H chain only; also called He Ab A330H) heavy 1: not shown heavy 2: not shown light: DIVMTQSPLSLPVTPGEPASISCQASESLVHSNRNTYLHWYLQKPGQSPQLLIYKVSNRFSGVPDRFSGSGSGTDFTLKISRVEAEDVGVYYCSQNTHVPPTFGQGTKVEIERTVAAPSVFIFPPSDEQLKSGTASVVCLLNNFYPREAKVQWKVDNALQSGNSQESVTEQDSKDSTYSLSSTLTLSKADYEKHKVYACEVTHQGLSSPVTKSFNRGEC | 106 % of control (control = 100) | 87.6 % of control (control = 100) | 1.21
3 | GpH7-A5/GpH7-B3 variant E333_02A/GpL16-k0 (antibody, human IgG1, kappa, He Ab: heterodimerized anti-glypican-3 IgG1, substitution in one H chain only; also called He Ab E333A) heavy 1: not shown heavy 2: not shown light: DIVMTQSPLSLPVTPGEPASISCQASESLVHSNRNTYLHWYLQKPGQSPQLLIYKVSNRFSGVPDRFSGSGSGTDFTLKISRVEAEDVGVYYCSQNTHVPPTFGQGTKVEIERTVAAPSVFIFPPSDEQLKSGTASVVCLLNNFYPREAKVQWKVDNALQSGNSQESVTEQDSKDSTYSLSSTLTLSKADYEKHKVYACEVTHQGLSSPVTKSFNRGEC | 103 % of control (control = 100) | 83.8 % of control (control = 100) | 1.23
4 | GpH7-A5/GpH7-B3 variant A330_10E/GpL16-k0 (antibody, human IgG1, kappa, He Ab: heterodimerized anti-glypican-3 IgG1, substitution in one H chain only; also called He Ab A330E) heavy 1: not shown heavy 2: not shown light: DIVMTQSPLSLPVTPGEPASISCQASESLVHSNRNTYLHWYLQKPGQSPQLLIYKVSNRFSGVPDRFSGSGSGTDFTLKISRVEAEDVGVYYCSQNTHVPPTFGQGTKVEIERTVAAPSVFIFPPSDEQLKSGTASVVCLLNNFYPREAKVQWKVDNALQSGNSQESVTEQDSKDSTYSLSSTLTLSKADYEKHKVYACEVTHQGLSSPVTKSFNRGEC | 107 % of control (control = 100) | 70.1 % of control (control = 100) | 1.53
5 | GpH7-A5/GpH7-B3 variant A327_20W/GpL16-k0 (antibody, human IgG1, kappa, He Ab: heterodimerized anti-glypican-3 IgG1, substitution in one H chain only; also called He Ab A327W) heavy 1: not shown heavy 2: not shown light: DIVMTQSPLSLPVTPGEPASISCQASESLVHSNRNTYLHWYLQKPGQSPQLLIYKVSNRFSGVPDRFSGSGSGTDFTLKISRVEAEDVGVYYCSQNTHVPPTFGQGTKVEIERTVAAPSVFIFPPSDEQLKSGTASVVCLLNNFYPREAKVQWKVDNALQSGNSQESVTEQDSKDSTYSLSSTLTLSKADYEKHKVYACEVTHQGLSSPVTKSFNRGEC | 97.7 % of control (control = 100) | 78.8 % of control (control = 100) | 1.24
6 | GpH7-A5/GpH7-B3 variant A330_09D/GpL16-k0 (antibody, human IgG1, kappa, He Ab: heterodimerized anti-glypican-3 IgG1, substitution in one H chain only; also called He Ab A330D) heavy 1: not shown heavy 2: not shown light: DIVMTQSPLSLPVTPGEPASISCQASESLVHSNRNTYLHWYLQKPGQSPQLLIYKVSNRFSGVPDRFSGSGSGTDFTLKISRVEAEDVGVYYCSQNTHVPPTFGQGTKVEIERTVAAPSVFIFPPSDEQLKSGTASVVCLLNNFYPREAKVQWKVDNALQSGNSQESVTEQDSKDSTYSLSSTLTLSKADYEKHKVYACEVTHQGLSSPVTKSFNRGEC | 109 % of control (control = 100) | 55.6 % of control (control = 100) | 1.95
7 | GpH7-A5/GpH7-B3 variant A330_13S/GpL16-k0 (antibody, human IgG1, kappa, He Ab: heterodimerized anti-glypican-3 IgG1, substitution in one H chain only; also called He Ab A330S) heavy 1: not shown heavy 2: not shown light: DIVMTQSPLSLPVTPGEPASISCQASESLVHSNRNTYLHWYLQKPGQSPQLLIYKVSNRFSGVPDRFSGSGSGTDFTLKISRVEAEDVGVYYCSQNTHVPPTFGQGTKVEIERTVAAPSVFIFPPSDEQLKSGTASVVCLLNNFYPREAKVQWKVDNALQSGNSQESVTEQDSKDSTYSLSSTLTLSKADYEKHKVYACEVTHQGLSSPVTKSFNRGEC | 91.5 % of control (control = 100) | 41.3 % of control (control = 100) | 2.22
8 | GpH7-A5/GpH7-B3 variant A330_08L/GpL16-k0 (antibody, human IgG1, kappa, He Ab: substitution in one H chain only; also called He Ab A330L) heavy 1: not shown heavy 2: not shown light: DIVMTQSPLSLPVTPGEPASISCQASESLVHSNRNTYLHWYLQKPGQSPQLLIYKVSNRFSGVPDRFSGSGSGTDFTLKISRVEAEDVGVYYCSQNTHVPPTFGQGTKVEIERTVAAPSVFIFPPSDEQLKSGTASVVCLLNNFYPREAKVQWKVDNALQSGNSQESVTEQDSKDSTYSLSSTLTLSKADYEKHKVYACEVTHQGLSSPVTKSFNRGEC | 107 % of control (control = 100) | 70.5 % of control (control = 100) | 1.52
9 | GpH7-A5/GpH7-B3 variant E333_01G/GpL16-k0 (antibody, human IgG1, kappa, He Ab: heterodimerized anti-glypican-3 IgG1, substitution in one H chain only; also called He Ab E333G) heavy 1: not shown heavy 2: not shown light: DIVMTQSPLSLPVTPGEPASISCQASESLVHSNRNTYLHWYLQKPGQSPQLLIYKVSNRFSGVPDRFSGSGSGTDFTLKISRVEAEDVGVYYCSQNTHVPPTFGQGTKVEIERTVAAPSVFIFPPSDEQLKSGTASVVCLLNNFYPREAKVQWKVDNALQSGNSQESVTEQDSKDSTYSLSSTLTLSKADYEKHKVYACEVTHQGLSSPVTKSFNRGEC | 103 % of control (control = 100) | 81.4 % of control (control = 100) | 1.26

Second part, the binder after the results:

Row | He/Con_1a (Ia binding) [1] | He/Con_2b (IIb binding) [2] | He_1a/2b (Ia/IIb) [3] | Binder
10 | 105 % of control (control = 100) | 77.9 % of control (control = 100) | 1.35 | GpH7-A5/GpH7-B3 variant A330_14T/GpL16-k0 (antibody, human IgG1, kappa, He Ab: heterodimerized anti-glypican-3 IgG1, substitution in one H chain only; also called He Ab A330T) heavy 1: not shown heavy 2: not shown light: DIVMTQSPLSLPVTPGEPASISCQASESLVHSNRNTYLHWYLQKPGQSPQLLIYKVSNRFSGVPDRFSGSGSGTDFTLKISRVEAEDVGVYYCSQNTHVPPTFGQGTKVEIERTVAAPSVFIFPPSDEQLKSGTASVVCLLNNFYPREAKVQWKVDNALQSGNSQESVTEQDSKDSTYSLSSTLTLSKADYEKHKVYACEVTHQGLSSPVTKSFNRGEC
11 | 106 % of control (control = 100) | 63.7 % of control (control = 100) | 1.67 | GpH7-A5/GpH7-B3 variant A330_18N/GpL16-k0 (antibody, human IgG1, kappa, He Ab: heterodimerized anti-glypican-3 IgG1, substitution in one H chain only; also called He Ab A330N) heavy 1: not shown heavy 2: not shown light: DIVMTQSPLSLPVTPGEPASISCQASESLVHSNRNTYLHWYLQKPGQSPQLLIYKVSNRFSGVPDRFSGSGSGTDFTLKISRVEAEDVGVYYCSQNTHVPPTFGQGTKVEIERTVAAPSVFIFPPSDEQLKSGTASVVCLLNNFYPREAKVQWKVDNALQSGNSQESVTEQDSKDSTYSLSSTLTLSKADYEKHKVYACEVTHQGLSSPVTKSFNRGEC
12 | 108 % of control (control = 100) | 76.1 % of control (control = 100) | 1.41 | GpH7-A5/GpH7-B3 variant A330_20W/GpL16-k0 (antibody, human IgG1, kappa, He Ab: heterodimerized anti-glypican-3 IgG1, substitution in one H chain only; also called He Ab A330W) heavy 1: not shown heavy 2: not shown light: DIVMTQSPLSLPVTPGEPASISCQASESLVHSNRNTYLHWYLQKPGQSPQLLIYKVSNRFSGVPDRFSGSGSGTDFTLKISRVEAEDVGVYYCSQNTHVPPTFGQGTKVEIERTVAAPSVFIFPPSDEQLKSGTASVVCLLNNFYPREAKVQWKVDNALQSGNSQESVTEQDSKDSTYSLSSTLTLSKADYEKHKVYACEVTHQGLSSPVTKSFNRGEC
13 | 105 % of control (control = 100) | 67.1 % of control (control = 100) | 1.57 | GpH7-A5/GpH7-B3 variant A330_07I/GpL16-k0 (antibody, human IgG1, kappa, He Ab: heterodimerized anti-glypican-3 IgG1, substitution in one H chain only; also called He Ab A330I) heavy 1: not shown heavy 2: not shown light: DIVMTQSPLSLPVTPGEPASISCQASESLVHSNRNTYLHWYLQKPGQSPQLLIYKVSNRFSGVPDRFSGSGSGTDFTLKISRVEAEDVGVYYCSQNTHVPPTFGQGTKVEIERTVAAPSVFIFPPSDEQLKSGTASVVCLLNNFYPREAKVQWKVDNALQSGNSQESVTEQDSKDSTYSLSSTLTLSKADYEKHKVYACEVTHQGLSSPVTKSFNRGEC
14 | 106 % of control (control = 100) | 52.4 % of control (control = 100) | 2.01 | GpH7-A5/GpH7-B3 variant A330_03V/GpL16-k0 (antibody, human IgG1, kappa, He Ab: heterodimerized anti-glypican-3 IgG1, substitution in one H chain only; also called He Ab A330V) heavy 1: not shown heavy 2: not shown light: DIVMTQSPLSLPVTPGEPASISCQASESLVHSNRNTYLHWYLQKPGQSPQLLIYKVSNRFSGVPDRFSGSGSGTDFTLKISRVEAEDVGVYYCSQNTHVPPTFGQGTKVEIERTVAAPSVFIFPPSDEQLKSGTASVVCLLNNFYPREAKVQWKVDNALQSGNSQESVTEQDSKDSTYSLSSTLTLSKADYEKHKVYACEVTHQGLSSPVTKSFNRGEC
15 | 105 % of control (control = 100) | 80.5 % of control (control = 100) | 1.3 | GpH7-A5/GpH7-B3 variant A330_06M/GpL16-k0 (antibody, human IgG1, kappa, He Ab: heterodimerized anti-glypican-3 IgG1, substitution in one H chain only; also called He Ab A330M) heavy 1: not shown heavy 2: not shown light: DIVMTQSPLSLPVTPGEPASISCQASESLVHSNRNTYLHWYLQKPGQSPQLLIYKVSNRFSGVPDRFSGSGSGTDFTLKISRVEAEDVGVYYCSQNTHVPPTFGQGTKVEIERTVAAPSVFIFPPSDEQLKSGTASVVCLLNNFYPREAKVQWKVDNALQSGNSQESVTEQDSKDSTYSLSSTLTLSKADYEKHKVYACEVTHQGLSSPVTKSFNRGEC
